The molecules below were run against CD40 antigen on cells (cell-based binding assay) (UniProt P25942) (assay: cell-based binding assay on CD40 cells).
Chain of CD40 antigen on cells (cell-based binding assay) (UniProt P25942) (P25942 21-277 limits assumed): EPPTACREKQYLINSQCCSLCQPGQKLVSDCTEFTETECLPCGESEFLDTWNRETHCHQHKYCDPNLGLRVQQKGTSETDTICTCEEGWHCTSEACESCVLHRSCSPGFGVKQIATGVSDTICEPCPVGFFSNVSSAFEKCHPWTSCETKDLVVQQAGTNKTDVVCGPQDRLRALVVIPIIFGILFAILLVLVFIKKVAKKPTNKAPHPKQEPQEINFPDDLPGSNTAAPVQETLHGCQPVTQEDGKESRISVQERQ

X Mean | Molecule
10700 | anti-CD40/APX005M (control antibody)

What follows are molecules tested against T1, CD40 antigen on cells (cell-based binding assay) (UniProt P25942 21-277, limits assumed) (assay: cell-based binding assay, 293F culture supernatant).
T1 construct: whole, on cells; the cells are not described
T1 sequence (P25942 21-277 limits assumed): as above

X Mean | Molecule
11500 | ANb24-Alpaca1-4M-2SP-149 (Fc fusion, also called ANb24-A1-4M-2SP-149; ANb24-Alpacal-4M-2SP-149; not shown: Fc joined to the VHH by overlap PCR) EVQLVESGGGLVQPGGSLRLSCTASGSTLDIYAIGWFRQAPGKEREGVSCITGSGSSTRYAHSVTGRFTISRDNAKNTVFLQMNSLKPEDTAVYYCAKARLLSRLCVPSPDFESWGQGTQVTVSS
4420 | ANb24-Alpaca1-4M-2SP-273 (Fc fusion, also called ANb24-A1-4M-2SP-273; ANb24-Alpacal-4M-2SP-273; not shown: Fc joined to the VHH by overlap PCR) EVQLVESGGGLVQPGGSLRLSCAASGSTLDYYAIGWFRQAPGKEREGVSCISGSGGSTRYADSVTGRFTISKDSAKNTVYLEMNSLKPEDTAVYYCARARLLSRLCVPSADFDSWGQGTQVTVSS
10800 | ANb24-Alpaca1-4M-2SP-180 (Fc fusion, also called ANb24-A1-4M-2SP-180; ANb24-Abpacal-4M-2SP-180; not shown: Fc joined to the VHH by overlap PCR) QPQFVESGGGLVQPGGSLRLSCTASGSTLDIYAIGWFRQAPGKEREGVSCITGSGSSTRYADSVTGRFTISRDNAKNTVFLQMNSLKPDDTAVYYCAKARLLSMLCVPSPDFESWGQGTQVTVSS
8960 | ANb24-Alpaca1-4M-2SP-335 (Fc fusion, also called ANb24-A1-4M-2SP-335; ANb24-Alpacal-4M-2SP-335; not shown: Fc joined to the VHH by overlap PCR) QPQFVESGGGLVQPGGTLRLSCAASGFTFEYYTIGWFRQTPGKEREGVSCITAAGVPRNADSAKGRFTISRDNAKNMVYLQMNNLKPEDTAVYYCAQARLLSTSCAPMNDYWGQGTQVTVSS
10500 | ANb24-Alpaca1-4M-2SP-175 (Fc fusion, also called ANb24-A1-4M-2SP-175; ANb24-Alpacal-4M-2SP-175; not shown: Fc joined to the VHH by overlap PCR) QPHFVESGGGLVQPGGSLRLSCVASGFTFEYVPIGWFRQAPGKEREGVSCITPTGITRNADSVKGRFTISRDNAKNTVYLQLNSLKPEDTAVYYCAKARLLSTSCVQTSDARGQGTQVTVSS
4080 | ANb24-Alpaca1-4M-2SP-332 (Fc fusion, also called ANb24-A1-4M-2SP-332; ANb24-Alpacal-4M-2SP-332; not shown: Fc joined to the VHH by overlap PCR) QVQLVESGGGLVQPGGSLRLSCAASGSTLASYAIGWFRQAPGKEREGISCISGSGGSTRAADSVQGRFTISRDNAKNTVSLQMNSLKPEDTAIYYCAKVRLLSRGCVPSPDFDSWGQGTQVTVSS
10700 | ANb24-Alpaca1-4M-2SP-226 (Fc fusion, also called ANb24-A1-4M-2SP-226; ANb24-Alpacal-4M-2SP-226; not shown: Fc joined to the VHH by overlap PCR) QLQLVESGGGLVQPGGTLRLSCAASGVTLEYYSIGWFRQSPGKEREGVSCISGGGVQRYADSAEGRFAISRDNAKNMVYLQMNNLEPEDTAVYYCARARLLMRGCAPMDNYWGQGTQVTVSS
8970 | ANb24-Alpaca1-4M-2SP-317 (Fc fusion, also called ANb24-A1-4M-2SP-317; ANb24-Alpacal-4M-2SP-317; not shown: Fc joined to the VHH by overlap PCR) QLQLVESGGDLVQPGGSLRLSCTASGHTLEYYAIGWFRQAPGKEREGVSCIIGSGGSTRYFDSVLGRFTISRDNAKNTVFLQMNSLKPEDTAVYYCAKVRLLSRLCVPSSDFDSWGQGTQVTVSS
